PMC10140725 (Scientific Reports, 2023)

Tests used:
[1] = molecular target: hemagglutinin (HA) of H1N1 influenza A strain A/Almaty/32/1998, mature HA1/HA2 trimer (Influenza A virus H1N1, strain A/Almaty/32/1998); test: crystal structure
[2] = molecular target: hemagglutinin (HA) of H1N1 influenza A strain A/Jiangsu/ALS1/2011, mature HA1/HA2 trimer (Influenza A virus H1N1, strain A/Jiangsu/ALS1/2011); test: crystal structure

Row | Substance | stoichiometry N [1] | stoichiometry N [2]
1 | hemagglutinin (HA) of H1N1 influenza A strain A/Almaty/32/1998, mature HA1/HA2 trimer (natural protein) | 3 | –
2 | hemagglutinin (HA) of H1N1 influenza A strain A/Jiangsu/ALS1/2011, mature HA1/HA2 trimer (natural protein) | – | 3
